Laboratory results from US20040131678A1, “Resorbable bone cement containing active agents” (priority 2001, published 2004).

Columns and labels:
[1] = Release kinetics of bone growth factor and antimicrobial peptide from cement pellets into culture medium; format: physicochemical; conditions: for cumulative release of TGFβ, of the original amount mixed in the cement: ELISA
Experimental: The release kinetics of the bone growth factor and of the antimicrobial peptide from bone substitute have been determined as follows:
In the release experiments the cement powder (40 mg) was mixed on a glass plate with TGFβ-containing liquid (13.3 μl), giving a paste of 53 mg cement with 133 ng TGFβ and 250 μg DHVAR 5. After 1 min of mixing the cement paste was applied into a Teflon mould with a diameter of 5 mm and measuring 1 mm in height. After 2 min the cement pellets were removed from the mould and added to the wells of 12-well culture plates (Costar, Cambridge, Mass., USA). Complete culture medium (Dulbecco's modified Eagle's medium (DMEM, Gibco-BRL Life Technologies Ltd. Paisley, UK) with 10% fetal bovine serum (FBS; Gibco) was added at 1 ml per well, to wells containing a TGFβ DHVAR5 enriched cement pellet as described above. The multiwell plates were incubated at 37° C. in 5% CO2 and 95% humidity. Culture medium was renewed completely at suitable time intervals (0.5, 1, 2, 4, 24, 48 hr and 1, 2, 4 and 8 weeks), and the medium samples were stored at −20° C. until used for TGFβ and DHVAR 5 determination. TGFβ was determined in the collected culture medium samples using a commercially available enzyme-linked immunosorbant assay (ELISA) (Promega, Madison, Wis., USA). A few cement pellets were crushed in the well with a mortar at 48 hr, after removal of the medium. The fragments were incubated in fresh medium for 1 hr; medium was then removed and stored for DHVAR5 and TGFβ determination. The amount of DHVAR5 released was determined by subjecting medium samples to capillary zone electrophoresis. Biological activity against S. aureus was confirmed in a standard killing assay. TGFβ was assayed by standard immunological analysis and by examination of the potency to promote cell growth as described above. The release of TGFβ from a cement pellet that incorporated TGFβ and DHVAR5 (133 ng TGFβ and 250 μg DHVAR 5 in 53 mg cement) at the time of setting of the cement, is shown in FIGS. 3 and 4 respectively. A rapid TGFβ release was found in the first 4 hr followed by a much slower release. The cumulative release found after 4 hr was 0.5% of the original amount of TGFβ mixed in the cement and increased to 1% after 48 hr. Release of TGFβ continued slowly hereafter, with maximal 0.1% released during the next 8 weeks (data not shown).
Similar results were obtained with peptides of Seq. ID Nos. 1-3, 5-7.

S. aureus = experiment: Standard killing assay of released peptide; format: cell-based; conditions: medium samples from release experiment
Experimental: In the release experiments the cement powder (40 mg) was mixed on a glass plate with TGFβ-containing liquid (13.3 μl), giving a paste of 53 mg cement with 133 ng TGFβ and 250 μg DHVAR 5. After 1 min of mixing the cement paste was applied into a Teflon mould with a diameter of 5 mm and measuring 1 mm in height. After 2 min the cement pellets were removed from the mould and added to the wells of 12-well culture plates (Costar, Cambridge, Mass., USA). Complete culture medium (Dulbecco's modified Eagle's medium (DMEM, Gibco-BRL Life Technologies Ltd. Paisley, UK) with 10% fetal bovine serum (FBS; Gibco) was added at 1 ml per well, to wells containing a TGFβ DHVAR5 enriched cement pellet as described above. The multiwell plates were incubated at 37° C. in 5% CO2 and 95% humidity. Culture medium was renewed completely at suitable time intervals (0.5, 1, 2, 4, 24, 48 hr and 1, 2, 4 and 8 weeks), and the medium samples were stored at −20° C. until used for TGFβ and DHVAR 5 determination. TGFβ was determined in the collected culture medium samples using a commercially available enzyme-linked immunosorbant assay (ELISA) (Promega, Madison, Wis., USA). A few cement pellets were crushed in the well with a mortar at 48 hr, after removal of the medium. […] The amount of DHVAR5 released was determined by subjecting medium samples to capillary zone electrophoresis. […]

With “LLLFLLKKRKKRKY [DHVAR-5, anti-microbial peptide, synthetic derivative based on histatin 5 carboxyterminal]” the “antimicrobial peptide released from the cement material” value ([1]; after 4 days) was “more than 80%”, the “release of DHVAR 5 from the cement material” value ([1]; within 48 hours, capillary zone electrophoresis, DMEM with 10% FBS, 37° C.) was 70% and the “Biological activity against S. aureus of released peptide” value (S. aureus) was “confirmed”.
In the case of TGFβ, the “cumulative release of TGFβ, of the original amount mixed in the cement” value ([1]; after 4 hr, cement pellet 133 ng TGFβ and 250 μg DHVAR 5 in 53 mg cement, DMEM with 10% FBS, 37° C.) is reported as 0.5%, the “cumulative release of TGFβ, of the original amount mixed in the cement” value ([1]; after 48 hr, same pellet, DMEM with 10% FBS, 37° C.) is reported as 1% and the “TGFβ released during the next 8 weeks” value ([1]; after the first 48 hr, maximal, data not shown) is reported as at most 0.1%. The “TGFβ released within 1 hr after fragmentation” value ([1]; pellets fragmented at 48 hr, fresh medium 1 hr, data not shown) was “approximately 0.5%”.
For gentamicin [reference compound], the “release kinetics from cement” value ([1]; in a similar test) was “incomplete and slow release kinetics”.
